This is an account of results in US20160159862A1 (PROTAGONIST THERAPEUTICS, published 2016).

The target in assay [1] is α4β1 (R&D Systems #5668-A4) (UniProt P13612). Put plainly: α4β1-VCAM competition ELISA.
Assay [2] has as its target rh integrin α4β7 (R&D Systems #5397-A30) (human) (UniProt P13612). The assay is described as follows: α4β7-MAdCAM competition ELISA.
The target in assay [3] is T1, α4β7 integrin on human cells (human, UniProt P13612 34-1032; P26010 20-798). The assay is described as follows: cell-based or functional assay.
Assay [4] has as its target T2, α4β7 integrin on mouse TK1 cells (mouse, UniProt Q00651 41-1039; P26011 20-806). The assay is described as follows: cell-based or functional assay.
For assay [5], the target named is T1, α4β7 integrin on human cells. Put plainly: cell-based or functional assay. This is another data set of the same source.
Assay [6] concerns the target T2, α4β7 integrin on mouse TK1 cells. The assay is described as follows: cell-based or functional assay. The source holds these as a separate data set.
Assay [7] has as its target α4β1 integrin on human cells (human, UniProt P13612 34-1032; P05556 21-798). Put plainly: cell-based or functional assay.

Bridge positions count the residues as written; N and C are the ends. Square brackets hold non-standard residues; d marks the D form. Bip = N[C@@H](Cc1ccc(-c2ccccc2)cc1)C(=O)O; 1Nal = N[C@@H](Cc1cccc2ccccc12)C(=O)O; 2Nal = N[C@@H](Cc1ccc2ccccc2c1)C(=O)O; NMeR = CN[C@@H](CCCNC(=N)N)C(=O)O; Tic = O=C(O)[C@@H]1Cc2ccccc2CN1; β3hE = N[C@@H](CCC(=O)O)CC(=O)O; NMeK = CN[C@@H](CCCCN)C(=O)O; Pen = CC(C)(S)[C@H](N)C(=O)O; dNMeK = CN[C@H](CCCCN)C(=O)O

T2 sequence (Q00651 41-1039, chain 1 of 2): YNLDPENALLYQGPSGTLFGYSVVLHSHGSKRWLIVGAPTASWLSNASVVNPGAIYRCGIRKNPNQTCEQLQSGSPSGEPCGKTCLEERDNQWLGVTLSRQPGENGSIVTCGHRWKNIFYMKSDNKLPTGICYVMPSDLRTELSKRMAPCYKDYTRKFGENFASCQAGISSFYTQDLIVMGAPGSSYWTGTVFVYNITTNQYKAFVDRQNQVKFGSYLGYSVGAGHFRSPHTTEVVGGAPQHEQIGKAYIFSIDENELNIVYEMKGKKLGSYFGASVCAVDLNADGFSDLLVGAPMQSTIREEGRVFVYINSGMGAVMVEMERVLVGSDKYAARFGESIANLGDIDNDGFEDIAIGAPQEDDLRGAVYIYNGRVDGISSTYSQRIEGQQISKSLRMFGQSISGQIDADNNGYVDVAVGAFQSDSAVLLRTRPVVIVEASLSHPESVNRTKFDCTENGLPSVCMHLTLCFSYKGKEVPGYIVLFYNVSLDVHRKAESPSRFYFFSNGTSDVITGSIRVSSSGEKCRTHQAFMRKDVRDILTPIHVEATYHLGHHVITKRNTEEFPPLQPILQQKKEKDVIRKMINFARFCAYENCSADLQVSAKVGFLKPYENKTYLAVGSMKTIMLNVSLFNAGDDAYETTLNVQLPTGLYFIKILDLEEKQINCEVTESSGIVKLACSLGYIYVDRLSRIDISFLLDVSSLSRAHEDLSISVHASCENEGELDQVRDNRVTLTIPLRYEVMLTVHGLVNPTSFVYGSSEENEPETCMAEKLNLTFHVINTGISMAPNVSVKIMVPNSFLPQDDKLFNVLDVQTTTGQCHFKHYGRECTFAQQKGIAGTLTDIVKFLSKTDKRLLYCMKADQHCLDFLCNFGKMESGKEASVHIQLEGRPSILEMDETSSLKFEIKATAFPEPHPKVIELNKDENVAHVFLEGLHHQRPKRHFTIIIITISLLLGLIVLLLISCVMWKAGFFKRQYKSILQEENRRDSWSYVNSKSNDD
T2 sequence (P26011 20-806, chain 2 of 2): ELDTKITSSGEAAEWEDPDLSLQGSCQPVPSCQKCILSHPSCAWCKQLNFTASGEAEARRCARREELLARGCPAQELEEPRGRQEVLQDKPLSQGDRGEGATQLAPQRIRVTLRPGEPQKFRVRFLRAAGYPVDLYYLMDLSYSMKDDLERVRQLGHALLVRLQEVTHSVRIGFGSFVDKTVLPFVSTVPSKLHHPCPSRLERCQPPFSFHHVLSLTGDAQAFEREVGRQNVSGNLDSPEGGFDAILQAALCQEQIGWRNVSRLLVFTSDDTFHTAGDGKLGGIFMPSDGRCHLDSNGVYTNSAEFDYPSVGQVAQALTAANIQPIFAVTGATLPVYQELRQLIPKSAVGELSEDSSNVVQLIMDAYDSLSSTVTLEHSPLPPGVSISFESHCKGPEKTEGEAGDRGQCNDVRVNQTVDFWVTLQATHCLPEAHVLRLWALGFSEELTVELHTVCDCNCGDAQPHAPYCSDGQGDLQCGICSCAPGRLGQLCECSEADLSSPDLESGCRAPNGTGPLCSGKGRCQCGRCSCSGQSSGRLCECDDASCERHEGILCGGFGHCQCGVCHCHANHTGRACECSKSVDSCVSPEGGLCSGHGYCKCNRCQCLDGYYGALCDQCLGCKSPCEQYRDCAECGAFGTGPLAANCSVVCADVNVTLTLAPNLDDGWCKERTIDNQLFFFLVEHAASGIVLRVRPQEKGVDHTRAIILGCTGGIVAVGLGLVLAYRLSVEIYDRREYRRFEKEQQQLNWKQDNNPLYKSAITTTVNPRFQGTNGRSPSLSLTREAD

B1: SEQ ID NO 44 (peptide)
peptide: Ac-[Pen][NMeR]SDTL[Pen][1Nal]E[dNMeK]-NH2
modifications: disulfide 1-7 (inferred); also: homodimer via DIG linker
On to B1, for which the IC50 in assay [1] is over 100 nM; in assay [2], under 10 nM. In assay [3], the “α4β7 cell (Hu) IC50” value was at most 10 nM. The “α4β7 cell(Mu) IC50” value in assay [4] is at most 10 nM.

B2: SEQ ID NO 154 (peptide)
peptide: Ac-[Pen][NMeR]SDTL[Pen][Tic][β3hE]-NH2
modifications: disulfide 1-7 (inferred)
For B2, the IC50 in assay [1] is over 1000 nM. Further, the “α4β7 cell (Hu) IC50” value in assay [3] is over 100 nM. In assay [4], the “α4β7 cell(Mu) IC50” value is over 1000 nM.

B3: SEQ ID NO 210 (peptide)
peptide: Ac-[Pen][NMeR]SDTL[Pen][2Nal]E[dK]-NH2
modifications: disulfide 1-7 (inferred)
B3 came in with an IC50 in assay [1] of 200 nM. The molecule also registered an IC50 in assay [2] of 11 nM. Moreover, in assay [5], the “Cell Adhesion PBMC IC50” value is 517 nM and the “Cell Adhesion α4β7 IC50” value amounted to 40 nM. Further, the “Cell Adhesion α4β7 Mouse IC50” value in assay [6] is 60 nM. The “Cell Adhesion α4β1 IC50” value in assay [7] is over 100000 nM.

B4: SEQ ID NO 150 (peptide)
peptide: Ac-[Pen][NMeR]SDTL[Pen][Bip][b‑H‑E][NMeK]-NH2
modifications: disulfide 1-7 (inferred); also: homodimer via DIG
For B4, the IC50 in assay [1] is over 1000 nM; in assay [2], under 10 nM. In addition, in assay [3], the “α4β7 cell (Hu) IC50” value was at most 10 nM. For the same molecule, in assay [4], the “α4β7 cell(Mu) IC50” value is at most 10 nM.

B5: SEQ ID NO 155 (peptide)
peptide: Ac-[Pen][NMeR]SDTL[Pen][2Nal][b‑H‑E]-NH2
modifications: disulfide 1-7 (inferred)
On to B5, for which the IC50 in assay [1] was over 1000 nM. The “α4β7 cell (Hu) IC50” value in assay [3] is over 25 nM. In assay [4], the “α4β7 cell(Mu) IC50” value is over 25 nM.

B6: SEQ ID NO 212 (peptide)
peptide: Ac-[Pen][NMeR]SDTL[Pen][2Nal]E[dK]-NH2
modifications: disulfide 1-7 (inferred); also: homodimer via DIG
As to B6, the IC50 in assay [1] is 70 nM; in assay [2], 2 nM. Moreover, the “Cell Adhesion α4β7 IC50” value in assay [5] is 2.5 nM. For the same molecule, the “Cell Adhesion α4β7 Mouse IC50” value in assay [6] worked out at 2.5 nM. The “Cell Adhesion α4β1 IC50” value in assay [7] is over 100000 nM.

B7: SEQ ID NO 86 (peptide)
peptide: Ac-[Pen][NMeR]SDTL[Pen]WE(OMe)[dK]-NH2
modifications: disulfide 1-7 (inferred); also: homodimer linked by DIG
With B7, the “α4β7 cell (Hu) IC50” value in assay [3] is at most 10 nM. The “α4β7 cell(Mu) IC50” value in assay [4] is at most 10 nM.
